In US20230357735, “PROGRAMMABLE NUCLEASES AND METHODS OF USE” (Mammoth Biosciences, Inc., published 2023) one finds activity data, which are given here for 3 molecules.

B1: TRAC gRNA R3042 ; TRAC target (ssRNA ; dsDNA)
RNA: CUUUCAAGACUAAUAGAUUGCUCCUUACGAGGAGACGAGUCUCUCAGCUGGUACAC
DNA 1: GAGTCTCTCAGCTGGTACAC
DNA 2: GTGTACCAGCTGAGAGACTC
B2: PDCD1 gRNA R2925 ; PDCD1 target (ssRNA ; dsDNA)
RNA: CUUUCAAGACUAAUAGAUUGCUCCUUACGAGGAGACUAGCACCGCCCAGACGACUG
DNA 1: TAGCACCGCCCAGACGACTG
DNA 2: CAGTCGTCTGGGCGGTGCTA
B3: B2M gRNA R3132 ; B2M target (ssRNA ; dsDNA)
RNA: CUUUCAAGACUAAUAGAUUGCUCCUUACGAGGAGACAGCAAGGACUGGUCUUUCUA
DNA 1: AGCAAGGACTGGTCTTTCTA
DNA 2: TAGAAAGACCAGTCCTTGCT

For this data set, the target named is T1, CasΦ.12 (in cells) (Unknown).
T1 chain: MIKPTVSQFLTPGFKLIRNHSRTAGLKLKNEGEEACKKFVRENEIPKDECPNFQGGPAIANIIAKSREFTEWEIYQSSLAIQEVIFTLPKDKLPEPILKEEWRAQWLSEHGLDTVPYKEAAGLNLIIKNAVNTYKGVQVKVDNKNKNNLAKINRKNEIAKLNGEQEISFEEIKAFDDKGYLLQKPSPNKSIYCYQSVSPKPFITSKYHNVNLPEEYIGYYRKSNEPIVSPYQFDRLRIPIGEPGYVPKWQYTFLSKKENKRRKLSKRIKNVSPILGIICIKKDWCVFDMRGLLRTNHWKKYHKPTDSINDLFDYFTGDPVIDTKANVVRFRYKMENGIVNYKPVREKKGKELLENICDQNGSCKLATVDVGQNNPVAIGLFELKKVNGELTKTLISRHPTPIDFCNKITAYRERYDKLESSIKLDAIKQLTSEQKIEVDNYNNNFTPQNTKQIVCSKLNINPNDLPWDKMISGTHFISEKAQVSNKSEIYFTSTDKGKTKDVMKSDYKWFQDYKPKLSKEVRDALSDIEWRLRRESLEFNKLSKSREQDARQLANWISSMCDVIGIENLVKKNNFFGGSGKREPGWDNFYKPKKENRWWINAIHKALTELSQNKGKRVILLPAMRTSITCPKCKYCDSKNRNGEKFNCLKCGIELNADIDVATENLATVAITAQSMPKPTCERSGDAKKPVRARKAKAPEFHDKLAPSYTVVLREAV
The data set is described as follows: cell_activity; T cells, RNP nucleofection; PAM NTTN. As to the method: This example illustrates the ability of CasΦ RNP complexes to knockout multiple genes simultaneously. In this study, gRNAs targeting B2M, TRAC and PDCD1 (provided in Table 15) were incubated with CasΦ.12 (SEQ ID NO: 12) for 10 minutes at room temperature to form B2M, TRAC, and PDC1 targeting RNPs, respectively. The B2M targeting RNPs, TRAC targeting RNPs, PDCD1 targeting RNPs and combinations thereof were added to T cells. T cells were resuspended at 5×10⁵ cells/20 μL in Nucleofection P3 solution and an Amaxa 4D 96-well electroporation system with pulse code EH115 was used to nucleofect the cells. Immediately after nucleofection, 85 μl pre-warmed culture medium was added to each well. The cells were then left in the cuvette plate for 10 minutes before transfer to the culture plate. On Day 3, genomic DNA was extracted and sent for NGS sequencing and the % indel was measured with a positive % indel being indicative of % knockout. On Day 5, cells were harvested for flow cytometry and the % knockout was measured with fluorescently labeled antibodies to TRAC and B2M (antibody to PDCD1 unavailable). % indel results are presented in Table 16 and flow cytometry data presented in Table 17.
Turning to B1, the activity was 77.6 % indel. In the case of B2 it was 44.6 % indel; in that of B3, 85.5 % indel.
